Source: patent US7763704B2, “Sushi peptide multimer” (priority 2003, dated 2010)

How the values were obtained:
[1] = ELISA-based LPS binding assay; design: species or system Escherichia coli 055:B5; conditions: peptide concentration achieving 50% of maximum binding to LPS on the ELISA plate
Experimental: LPS was coated overnight on 96-well plates. Varying concentrations of peptides were allowed to interact with the immobilized LPS. The amount of bound peptides was determined by rabbit anti-S3 IgG and quantitated by ABTS substrate. The average OD405nm of the triplicate samples were calculated and plotted with the corresponding concentration.
The polysorp 96-well plate (MaxiSorp™, Nunc) was first coated with 100 μl per well of 4 μg/ml (approximately 1 μM) of LPS diluted in pyrogen-free phosphate-buffered saline (PBS). The plate was sealed and incubated overnight at room temperature. The wells were aspirated and washed 4 times with 300 μl wash solution (PBS containing 0.05% Tween-20). The wells were blocked with wash solution containing 2% BSA for 1 h at room temperature. After washing 2 times, varying concentrations of peptides were allowed to interact with bound LPS at room temperature for 3 h. Bound peptides were detected by incubation with rabbit anti-S3 antibody and 1:2000 of goat anti-rabbit antibody conjugated with HRP. Each antibody was incubated for 2 h at 37° C. In the final step, 100 μl of substrate, ABTS (Boehringer Mannheim), was added. The absorbance was measured at 405 nm with reference wavelength at 490 nm.

[2] = test system: LPS-induced limulus amoebocyte lysate (LAL) reaction; experiment: Endotoxin neutralization assay based on anti-LAL test (LAL Kinetic-QCL); type: biochemical, Escherichia coli 055:B5; conditions: for ENC50 (50% endotoxin-neutralizing concentration), inhibition of LPS-induced LAL assay: against 5 EU/ml of LPS
Description: The LAL Kinetic-QCL kit utilizes the initial part of the LPS-triggered cascade in limulus amoebocyte lysate to achieve an enzymatic reaction, which catalyses the release of p-nitroaniline from a synthetic substrate, producing a yellow color, which is quantifiable by absorbance at 405nm. The ENC50 (Endotoxin Neutralization Concentration) refers to the peptide concentration required to neutralize 50% of a predetermined quantity of endotoxin. A low ENC50 indicates high potency of the peptide for endotoxin neutralization.
In this assay, peptides of different concentrations were incubated for 1 h at 37° C. with or without an equal volume of LPS in disposable, endotoxin-free borosilicate tubes. Fifty microliters of each mixture was then dispensed into wells of a sterile microtiter plate (Nunclon™ Δsurface, Nunc). Fifty microliters of freshly reconstituted LAL reagent was dispensed into each well.

[3] = test system: LPS-induced hTNF-α secretion in THP-1 cells; experiment: Suppression of LPS-induced hTNF-α secretion in human THP-1 cells; type: cell-based; conditions: for ENC50, concentration to achieve 50% inhibition of LPS-induced hTNF-α production: THP-1 cells incubated with 50 EU/ml of LPS, 6 h
Experimental: THP-1 cells were cultured at 37° C. in a humidified environment in the presence of 5% CO2. RPMI 1640 medium was supplemented with 10% fetal bovine serum (FBS), penicillin (100 U/ml), and streptomycin (100 μg/ml). The cells were maintained at a density of 2.5×10^5-6 cells/ml. THP-1 monocytes were transformed into macrophages by addition of phorbol myristic acid, PMA (Sigma) at a stock of 0.3 mg/ml in dimethyl sulfoxide to give a final concentration of 30 ng/ml and 0.01% dimethyl sulfoxide. PMA-treated cell suspensions were immediately plated into 96-well microtiter plate at a density of 4×10^5 cells/ml and allowed to differentiate for 48 h at 37° C. The culture medium was removed and the cells were washed twice with serum-free RPMI 1640. Thereafter, the macrophages were stimulated with 50 EU/ml LPS (a specific activity of LPS that has been standardized by LAL test against FDA-approved LPS standards), peptides alone or LPS (preincubated with various concentrations of peptides) and incubated at 37° C. After 6 h, the culture medium was collected and hTNF-α concentration in the supernatants was assayed using ELISA.

[4] = Surface plasmon resonance (BIAcore 2000, HPA chip) realtime interaction analysis between peptides and LPS; type: binding; conditions: 20 mM Tris-Cl, pH7.3; HPA chip immobilized with lipid A; mean of three independent experiments
Experimental: Surface plasmon resonance (SPR) analysis of the real time interaction between peptides and LPS was performed with BIAcore 2000 (Pharmacia) using HPA chip (Tan et al, 2000b). The affinity constant was calculated using BIAevaluation software 3.0. The mean values were obtained from three independent experiments.
At 4 μg/ml, both recombinant peptides reached saturation of binding to LPS (FIG. 4), while the chemically synthesized peptide continued linearly and required 20 μg/ml to reach saturation of binding with LPS (data not shown). The EBC50 (Endotoxin Binding Concentration) of the peptide, which achieves 50% of maximum binding to LPS on the ELISA plate, reflects the binding activity of peptide to LPS, with the lower EBC50 indicating higher potency. […] The kinetics of binding of peptides to LPS in 20 mM Tris-Cl, pH7.3, was also measured by SPR analysis with BIAcore 2000 using HPA chip, which was immobilized with lipid A (bioactive moiety of LPS). The Kd values of chemically synthesized S3, rS3-1mer and rS3-4mer are (7.80±2.18)×10^−7 M, (4.74±2.34)×10^−8 M, (1.71±1.86)×10^−8 M, respectively.

[5] = compared with rS3-1mer and chemically synthesized S3

## rS3-1mer: recombinant S3 monomer from acid digestion of rS3-4mer, with additional Asp and Pro at the ends, SEQ ID NO:7 (PHAEHKVKIGVEQKYGQFPQGTEVTYTCSGNYFLMD)
[1]
  EBC50 (Endotoxin Binding Concentration): 1.02 µg/mL
[2]
  ENC50 (50% endotoxin-neutralizing concentration), inhibition of LPS-induced LAL assay: 9.2 µg/mL
[3]
  ENC50, concentration to achieve 50% inhibition of LPS-induced hTNF-α production: 83.2 µg/mL
[4]
  Kd: 47.4 nM

B1: rS3-4mer: recombinant tetramer of S3 peptide in tandem repeat with Asp-Pro linkers, 18.4 kDa, SEQ ID NO:9 (protein)
chain: PQDPHAEHKVKIGVEQKYGQFPQGTEVTYTCSGNYFLMDPQDPHAEHKVKIGVEQKYGQFPQGTEVTYTCSGNYFLMDPQDPHAEHKVKIGVEQKYGQFPQGTEVTYTCSGNYFLMDPQDPHAEHKVKIGVEQKYGQFPQGTEVTYTCSGNYFLMD
[1]
  EBC50 (Endotoxin Binding Concentration): 0.41 µg/mL
[2]
  ENC50 (50% endotoxin-neutralizing concentration), inhibition of LPS-induced LAL assay: 5.4 µg/mL
[2]; [5]
  fold stronger LPS neutralization efficacy than the monomeric peptides (LAL inhibition): 2 fold
[3]
  ENC50, concentration to achieve 50% inhibition of LPS-induced hTNF-α production: 40.4 µg/mL
[3]; [5]
  fold higher anti-LPS activity than the monomers (suppression of TNF-α release): 2 fold
[4]
  Kd: 17.1 nM
